# Measurements: publication PMC11086051
# What was measured:
# SpoVG [1] = target: T1, SpoVG (Borrelia burgdorferi, UniProt O51726 1-97); assay: competition
# T1 sequence: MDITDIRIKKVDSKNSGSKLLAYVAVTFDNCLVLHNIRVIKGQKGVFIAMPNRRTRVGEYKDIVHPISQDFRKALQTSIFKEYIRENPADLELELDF
# SpoVG [2] = target: T1, SpoVG; assay: competition; remark: listed apart in the source
# SpoVG [3] = target: T1, SpoVG; assay: EMSA
Binder,binding result (SpoVG [1]),IC50 (SpoVG [2]),Kd (SpoVG [3])
UAUGUACAAAAAGCGGGAGGCUUAUAA (ssRNA) [RNA-03],binds,–,–
UAUGUACUUAAAGCGGGAGGCUUAUAA (ssRNA) [RNA-20],binds,–,–
UAUGUACUUUAAGCGGGAGGCUUAUAA (ssRNA) [RNA-17],binds,–,–
UAUGUACUUUUUGCGGGAGGCUUAUAA (ssRNA) [spoVG RNA],–,1030 nM,59 nM
